Measurements from PMC11840735.

Target: USP14 (UniProt P54578)
Experiment: co-IP, immunoblot
Settings: reference: ALKBH5 wild type; sites S64,S69

## ALKBH5 (from UniProt Q6P6C2) ALKBH5 S64A/S69A
  binding against the reference: weaker
